Reference: patent EP2182008A2

Columns and labels:
[1] = target: recombinant VCAM-1 (commercial preparation, R & D Systems) (UniProt P19320); assay: cell-based or functional assay
[2] = target: mutant two domain VCAM-1 fused to human immunoglobulin Fc (substitution at residue 40) (human) (UniProt P19320); assay: adhesion of transfected CHO cells to immobilized CAM, crystal violet, A570
[3] = target: immobilized CD11b/CD18 (human) (UniProt P05107); assay: ELISA, plate format; sentence unclear
[4] = target: LFA-1 leucine zipper fusion protein (UniProt P20701); assay: ELISA, plate format; sentence unclear
[5] = target: soluble ICAM-R/IgG1 fusion protein (UniProt P32942); assay: ELISA, soluble integrin in supernatant on immobilized ICAM/Ig
[6] = target: T1, VCAM-1/IgG1 fusion protein (seven extracellular immunoglobulin-like domains) (UniProt P19320); assay: ELISA, Iαd/IgG4 on immobilized CAM/IgG, detection with anti-IgG4 HP6023
T1 sequence (looked up): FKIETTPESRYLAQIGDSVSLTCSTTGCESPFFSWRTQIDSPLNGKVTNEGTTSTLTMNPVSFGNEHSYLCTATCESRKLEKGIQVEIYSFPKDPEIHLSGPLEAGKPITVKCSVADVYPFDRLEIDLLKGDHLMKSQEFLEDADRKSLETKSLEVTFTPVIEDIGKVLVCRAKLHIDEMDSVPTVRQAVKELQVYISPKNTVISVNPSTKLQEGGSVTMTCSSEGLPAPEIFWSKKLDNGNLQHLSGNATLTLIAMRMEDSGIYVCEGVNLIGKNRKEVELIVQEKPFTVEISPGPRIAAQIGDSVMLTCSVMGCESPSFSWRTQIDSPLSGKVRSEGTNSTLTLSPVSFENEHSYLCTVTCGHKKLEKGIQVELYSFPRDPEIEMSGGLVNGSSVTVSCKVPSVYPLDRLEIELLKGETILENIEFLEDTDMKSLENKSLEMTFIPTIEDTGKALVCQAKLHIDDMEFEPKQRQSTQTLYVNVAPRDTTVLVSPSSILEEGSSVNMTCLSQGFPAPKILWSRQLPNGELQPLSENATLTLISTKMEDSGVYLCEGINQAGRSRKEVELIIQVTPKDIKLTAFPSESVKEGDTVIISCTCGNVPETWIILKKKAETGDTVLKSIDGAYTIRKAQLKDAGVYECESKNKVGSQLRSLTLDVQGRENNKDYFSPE

Sequence of human αd I domain/IgG4 fusion protein (P01861 other isoform, or with tags, fused parts or gaps): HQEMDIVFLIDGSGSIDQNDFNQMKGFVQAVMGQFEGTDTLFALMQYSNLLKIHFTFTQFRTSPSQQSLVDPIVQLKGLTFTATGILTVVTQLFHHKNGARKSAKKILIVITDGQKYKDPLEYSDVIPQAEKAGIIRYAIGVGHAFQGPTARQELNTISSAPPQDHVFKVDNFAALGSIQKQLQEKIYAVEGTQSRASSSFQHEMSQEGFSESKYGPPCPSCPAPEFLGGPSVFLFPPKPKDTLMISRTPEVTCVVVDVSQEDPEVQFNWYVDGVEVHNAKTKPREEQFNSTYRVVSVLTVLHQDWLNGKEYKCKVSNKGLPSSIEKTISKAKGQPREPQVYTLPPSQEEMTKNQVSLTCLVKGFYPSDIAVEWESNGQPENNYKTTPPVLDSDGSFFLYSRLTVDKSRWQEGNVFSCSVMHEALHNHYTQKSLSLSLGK
Sequence of soluble ICAM-R/IgG1 fusion protein (P32942 30-485 limits assumed): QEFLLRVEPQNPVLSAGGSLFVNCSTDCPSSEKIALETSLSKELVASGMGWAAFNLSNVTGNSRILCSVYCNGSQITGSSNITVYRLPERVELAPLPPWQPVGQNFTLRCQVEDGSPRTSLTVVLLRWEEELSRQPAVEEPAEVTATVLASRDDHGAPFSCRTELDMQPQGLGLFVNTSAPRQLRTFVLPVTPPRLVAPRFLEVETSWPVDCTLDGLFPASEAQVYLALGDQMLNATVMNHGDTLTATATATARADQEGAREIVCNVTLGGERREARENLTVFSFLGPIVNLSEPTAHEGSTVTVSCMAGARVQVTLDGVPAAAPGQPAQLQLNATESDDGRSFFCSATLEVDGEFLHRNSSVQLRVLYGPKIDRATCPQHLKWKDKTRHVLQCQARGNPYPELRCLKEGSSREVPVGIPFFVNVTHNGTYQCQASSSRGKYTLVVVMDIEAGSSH

native human αd/CD18 on human cells (from UniProt Q13349 18-1161; P05107 23-769) (receptor)
binding rate of IL-5 cultured eosinophils to immobilized VCAM-1 [1]: 28.8% | binding rate of IL-5 cultured eosinophils to immobilized VCAM-1 in the presence of a monoclonal antibody against α4 [1]: 18.1% | binding rate of IL-5 cultured eosinophils to immobilized VCAM-1 in the presence of an anti-CD18 monoclonal antibody [1]: 17.1%

human αd/CD18 expressed on transfected cells (from UniProt P05107 23-769) (receptor)
binding as percent of that with wild-type VCAM-1 [2]: 50%

soluble human αd/CD18 leucine zipper heterodimer (from UniProt P05107 23-700) (receptor)
fold greater than background binding [3]: 15 fold | fold greater than background binding [4]: 5 fold | fold over control well containing no antibody [5]: 10 fold

human αd I domain/IgG4 fusion protein (from UniProt P01861 99-327) (Fc fusion)
fold higher than background [6]: 7 to 10 fold
